The supplement of paper PMC10724198
± gives the standard deviation of the averaged measurements.

Tested on: Saccharomyces cerevisiae
Test: protein stability index of tFT-peptide fusion (C-terminal peptide) (PSI (0-1 scale)); higher = more stable (slower turnover)
Details: genetic background: wild type; temperature: 30 C
Experimental: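 Multiplexed protein stability (MPS) profiling in S. cerevisiae. Random 12-aa peptides (tFT-X12 library) are fused to the C-terminus of a sfGFP-mCherry tandem fluorescent timer, after mCherry and a GGGS linker. Cells are FACS-sorted into 8 mCherry/sfGFP bins and deep-sequenced. The protein stability index (PSI) is the read-weighted bin average, scaled from 0 (unstable) to 1 (stable). Only peptides with >10 reads are reported; cells were grown at 30 °C in SC-His with glucose.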
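Further: PSI is a weighted mean of sequencing reads over stability bins, variants kept only with over 10 reads, mCherry proximal and sfGFP distal, peptide attached via GGGS linker.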

Sequence	protein stability index
GVGCVGGGSSCA	0.67 ± 0.1
GVGFRVVRTSGR	0.6859 ± 0.0018
GVGRGGAVENKV	0.742 ± 0.054
GVGVGDCVRCMV	0.619 ± 0.008
GVGWPGVGAGGG	0.635 ± 0.05
GVGWQSPGVLVL	0.605 ± 0.017
GVIGGLRAGVGG	0.719 ± 0.079
GVLGWTRFRSCS	0.715 ± 0.077
GVLLWWGRRRGE	0.7224 ± 0.0048
GVLWCGYGVGGG	0.762 ± 0.11
GVNGSGFLSEVI	0.6795 ± 0.0012
GVPGQFVSENII	0.679 ± 0.027
GVQDVRAGLLEY	0.676 ± 0.037
GVQFSVWCGSVG	0.7 ± 0.04
GVRCVQGTVTGR	0.7 ± 0.099
GVREGCRGGVGA	0.625 ± 0.052
GVRGCGMTADVF	0.668 ± 0.008
GVRGGCDRGEVG	0.604 ± 0.046
GVRPWGGMCSCL	0.7046 ± 0.0024
GVRSGAGGQGVG	0.708 ± 0.069
GVSGQGLVAVEV	0.59 ± 0.035
GVVALFLYLLVL	0.494 ± 0.02
GVVERGRRAGEG	0.659 ± 0.028
GVVGKDEGRSRA	0.797 ± 0.038
GVVMLSDDGSAW	0.718 ± 0.026

Sequence	protein stability index
GVVSVFVGSLGG	0.699 ± 0.067
GVVVVVVGRGLG	0.574 ± 0.018
GVVWMSCGGGWG	0.7543 ± 0.0068
GVVWMSCGGWWG	0.7545 ± 0.0042
GVVWMSGGGWWG	0.761 ± 0.03
GVWCFPVGVFRA	0.529 ± 0.011
GVWGVGGGGGGR	0.634 ± 0.088
GVWRCGVVGLSL	0.665 ± 0.038
GVWSLVGRGGEG	0.621 ± 0.017
GVWVASCSGAGI	0.632 ± 0.033
GWALGRAGASGA	0.701 ± 0.067
GWGGAGGGGGRV	0.652 ± 0.1
GWGGCGGWGFVG	0.605 ± 0.011
GWGGIGDGGPVW	0.679 ± 0.019
GWGVPGPEPREP	0.658 ± 0.064
GWHVGCGCTVFR	0.671 ± 0.061
GWKLGAGRRGVI	0.704 ± 0.029
GWLGFVGGVRVQ	0.685 ± 0.0063
GWRGAAGVPTVD	0.73 ± 0.031
GWSFDLVSAQWG	0.817 ± 0.02
GWSGCNWCIGVG	0.584 ± 0.018
GWTGEVGVAAGA	0.65 ± 0.064
GWVLRERGRGVG	0.572 ± 0.07
GWWAVSRSGCCC	0.693 ± 0.015
GYAGSRRLGLQE	0.641 ± 0.015

Sequence	protein stability index
GYHRGLSHVLED	0.694 ± 0.018
GYLGEIHLHYVQ	0.708 ± 0.048
GYWGRGGGLGGV	0.7438 ± 0.001
GYYVLSIGGVIV	0.574 ± 0.0065
HAARFRLPASPC	0.672 ± 0.051
HAAWQHPNTTQV	0.714 ± 0.013
HADFRTLLASRS	0.67 ± 0.018
HAHPDQTKLDTA	0.7 ± 0.063
HARAGTKPLTGY	0.678 ± 0.0092
HCSWRSLMTLAG	0.642 ± 0.031
HCVRVEWVEGRR	0.668 ± 0.023
HDGIQVSVRRRT	0.67 ± 0.011
HFSSLDPFLPSL	0.712 ± 0.016
HGFHSPPSDLPT	0.724 ± 0.15
HGLPPPLPPLRS	0.689 ± 0.019
HGSRGGIINEEG	0.642 ± 0.082
HGYRWCLHARFG	0.556 ± 0.058
HHPSPPSPSPAC	0.698 ± 0.018
HIGDLRDSCFIS	0.693 ± 0.031
HIIRGDCVGVLG	0.618 ± 0.017
HILDHVTSSLSF	0.66 ± 0.011
HILINTCSCASL	0.546 ± 0.044
HISSFPSPPPPV	0.711 ± 0.054
HIVSRKYNYPCT	0.739 ± 0.088
HKEYGTTCYGYR	0.691 ± 0.049

Sequence	protein stability index
HLCVDHLGCHSF	0.703 ± 0.048
HLFWSRGICFFR	0.631 ± 0.062
HLHGKTERPSHL	0.811 ± 0.058
HLIRRGGSQTWT	0.713 ± 0.049
HLLLLSLVFFFW	0.744 ± 0.017
HLSLPTRAPIRH	0.696 ± 0.019
HMCSTYGKLRLD	0.622 ± 0.052
HMLVCPLAALGI	0.6884 ± 0.0031
HPAGPSGRLLPT	0.685 ± 0.0095
HPETIGHNVRPR	0.708 ± 0.048
HPFARGPLSRHP	0.7 ± 0.081
HPIPHDVSGRRN	0.784 ± 0.1
HPPITPYLHRRT	0.724 ± 0.17
HPPPCLSLPSSP	0.731 ± 0.095
HPPPETEPIPVA	0.574 ± 0.066
HPPPSPRPPPPP	0.691 ± 0.039
HPSNMYSGDEAP	0.68 ± 0.01
HPSPPPPPPFPT	0.748 ± 0.038
HQYLGMCLDRPV	0.6455 ± 0.0054
HRASFRIGFRTF	0.758 ± 0.033
HRCLCGCLDSVV	0.726 ± 0.028
HRDPRFSRCSTC	0.69 ± 0.034
HREGTTAFFKTH	0.536 ± 0.013
HRLMDTNFSRSP	0.743 ± 0.061
HRLTGMRKRGRG	0.658 ± 0.066

Sequence	protein stability index
HRLWAGWGLEQC	0.712 ± 0.013
HRPDGTSRKSGA	0.662 ± 0.024
HRRCPVPRGSSP	0.704 ± 0.019
HRYRAFPLASSR	0.618 ± 0.056
HSASSDAGIKVR	0.718 ± 0.0083
HSFPSTLRRCFL	0.731 ± 0.095
HSHIPPNLTYCP	0.69396 ± 0.00029
HSIPPPRRHPTI	0.742 ± 0.025
HSPPAGPPHTKT	0.6694 ± 0.0039
HSPPPPFSPFSP	0.667 ± 0.024
HSPSSLCHPSTG	0.727 ± 0.098
HSRGGEPLTPAW	0.642 ± 0.092
HSSPPPAPPPLP	0.697 ± 0.019
HSSSGTHRIKKT	0.667 ± 0.052
HTKYISRRRTKR	0.706 ± 0.013
HTPTLPLHPPRY	0.642 ± 0.037
HTTMVGVAEGWV	0.686 ± 0.049
HTVPTLLPPNVP	0.665 ± 0.015
HVAYAQSRLFYA	0.638 ± 0.094
HVLRMFTGFLFC	0.624 ± 0.044
HVRVGRGLAVMC	0.528 ± 0.027
HVYDQLLSGAVA	0.691 ± 0.017
HWVVRGGSRRVV	0.7056 ± 0.0045
HYDTHQTPQTSP	0.667 ± 0.023
IACLDVLRRALF	0.627 ± 0.016

Sequence	protein stability index
IADDSSHGFRGE	0.7161 ± 0.0064
IAKKNKTSKNRK	0.703 ± 0.025
IALLGCFRVNGN	0.638 ± 0.095
IAQDLEPACIKG	0.695 ± 0.021
IATPQNPRRTKA	0.714 ± 0.045
IAVPFMPADLSF	0.718 ± 0.0089
IAVSSHPVLVCK	0.5961 ± 0.0029
IAWGNEISHSLF	0.72 ± 0.066
ICGGTNFPLGSV	0.741 ± 0.032
ICGLWVCLGHGF	0.595 ± 0.067
ICSLLIRREELV	0.681 ± 0.081
ICSVHFLFFPLL	0.573 ± 0.014
IDASPRFRDFLF	0.71 ± 0.022
IDLIKIKKKTKK	0.786 ± 0.17
IDQTSKRCKRAC	0.672 ± 0.018
IDYETIQKYKVE	0.633 ± 0.011
IEEQQKEKNRPK	0.712 ± 0.027
IFGRLRELTCWT	0.588 ± 0.034
IFHLFPFDNPYD	0.8 ± 0.048
IFMGSPYPRLPT	0.633 ± 0.018
IFPLPPSSRLTP	0.6934 ± 0.0037
